Laboratory results: patent US20130230533A1 (Regeneron, published 2013)
Positions count from the first letter of the chain named. Names may count otherwise.

T1: Monomeric human CD48-mmH (human)
T1 construct: also called soluble CD48 expressed with a myc-myc-hexa-histidine C-terminal tag [mmH]
T1 chain: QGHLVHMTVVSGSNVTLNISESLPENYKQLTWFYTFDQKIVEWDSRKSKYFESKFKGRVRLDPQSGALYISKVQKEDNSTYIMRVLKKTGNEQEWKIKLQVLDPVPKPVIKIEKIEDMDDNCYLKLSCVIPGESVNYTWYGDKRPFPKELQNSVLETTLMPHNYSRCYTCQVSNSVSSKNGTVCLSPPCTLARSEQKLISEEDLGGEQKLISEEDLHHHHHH

T2: Dimeric human CD48-mFc (human)
T2 chain: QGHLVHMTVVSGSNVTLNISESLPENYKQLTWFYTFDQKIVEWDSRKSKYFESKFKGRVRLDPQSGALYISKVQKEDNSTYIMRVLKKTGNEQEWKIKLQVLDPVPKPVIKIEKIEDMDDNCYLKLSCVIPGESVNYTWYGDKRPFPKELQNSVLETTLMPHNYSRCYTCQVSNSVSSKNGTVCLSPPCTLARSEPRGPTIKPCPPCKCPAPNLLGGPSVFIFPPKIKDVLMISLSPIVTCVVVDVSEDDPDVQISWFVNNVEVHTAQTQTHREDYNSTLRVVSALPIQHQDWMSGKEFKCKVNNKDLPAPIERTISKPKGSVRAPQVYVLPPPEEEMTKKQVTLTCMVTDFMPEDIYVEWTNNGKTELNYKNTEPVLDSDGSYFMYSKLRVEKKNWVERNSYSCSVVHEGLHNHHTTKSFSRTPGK

B1: H4H1772P (antibody, human IgG4, V domains shown)
VH: EVQLVESGGGLVQPGGSLRLSCAASGFTFSSYWMSWVRQAPGKGLEWVANIMRDGSEKYYVDSVKGRFTISRDNAKNSLYLQMNSLRGEDTAVYYCARERGFYTNYGNWFDPWGQGTLVTVSS
VL: DIVMTQSPLSLTVTPGESASISCRSSQSLLHSYGYNSLDWYLQKPGQSPQFLIYLVSNRASGVPDRFSGSGSGTDFTLKISRVEAEDVGVYYCMQVLQTPYTFGQGTKLEIK
notes: Human IgG4 Fc (prefix H4H)
B2: H4H1771P (antibody, human IgG4, V domains shown)
VH: QVQLVQSGTEVKKPGASVKVSCKVSGYTLIDLSIHWVRQAPGEGLEWMGGFDPEESETIYAQKFQGRVTMTEDTSTDTAYMELSSLRSEDTAVYYCVTEPIFGILIHESWGQGTLVTVSS
VL: DIVMTQTPLSSPVTLGQPASISCRSSHSPVHSNGHTYLSWLQQRPGQPPRILIYKISRRFSGVPDRFSGSGAGTDFTLKISRVETEDVGIYYCMQASQFPWTFGQGTKVEIK
notes: Human IgG4 Fc (prefix H4H)
B3: H2M1811N (antibody, mouse IgG2, V domains shown)
VH: QVQLVQSGAEAREPGASVRVSCKASGYTFTDYFIHWVRQAPGQGLEWMGWINPNSGATNFAQKFQGRVTMTRDTSLITAYMDLSRLKSDDAAVFYCARDVDGSGWYLDFWGQGTLVTVSS
VL: EIVLTQSPATLSLSPGERATLSCRASQSVSIYLAWYQQKPGQAPRLLIYDASNRATGIPARFSGSGSGTDFTLTISRLEPEDFAVYYCQQRSDWPPSITFGQGTRLEIK
notes: Human variable domains, mouse IgG2 Fc (prefix H2M)
B4: H2M1710N (antibody, mouse IgG2, V domains shown)
VH: QVQLVQSGADMKKPGASVRVSCKASGYTFTDYFIHWVRQAPGQGPEWMGWINPDSGATNYAQQFQGRVTMTRDTSISATYMEMSRLRSDDTAVFYCARDKDGSGWYLDDWGQGTLVTVSS
VL: B3 VL with S30N, T56S, R77S, D93N
notes: as for B3
B5: H3M1766N (antibody, V domains shown)
VH: EVQLVESGGGLAQPGGSLRLSCAASGFTFSSYEMNWVRQAPGKGLEWVSYITTSGSTIYYADSVKGRFTMSRDNAKKSLYLEMNSLRAEDTAVYYCAREECTNGVCYKDYQYYGMDVWGQGTTVTVSS
VL: DIQMTQSPSSVSASVGDRVTITCRASQNINTWLAWYQQKPGKVPKLLIYAASSLQSGVPSRFSGSGSGTDFTLTISSLQPEDFATYYCQQANSFPLTFGGGTKVEIK
notes: also called H2M1766N
B6: H4H1781P (antibody, human IgG4, V domains shown)
VH: QVQLVESGGGVVQPGRSLRLSCAASGFTFSNYGMHWVRQAPGKGLEWVAVIWYDDSNKNYADSVKGRFTISRDNSKNTLYLQMNSLRVEDTAVYYCARDRWTYSHFFEYWGQGTLVTVSS
VL: B5 VL with N28G, N30S, T31S, V43A, K45N, S63G, T72S, S77G, L96R, G100Q
notes: Human IgG4 Fc (prefix H4H)
B7: H4H1778P (antibody, human IgG4, V domains shown)
VH: B6 VH with D55E, N57S, N59Y, A61T, K76Q, N84T, V88A, F106Y
VL: B5 VL with N28G, N30S, T31S, L33V, V43A, L96R, G100Q
notes: Human IgG4 Fc (prefix H4H)
B8: H4H1770P (antibody, human IgG4, V domains shown)
VH: QVQLVQSGAEVKKPGAAVKVSCKASGYTFTAYGISWVRQAPGQGLEWMGWISAYDGDTNNAQKFQGRVTMTTDTSSSTAYMELRSLGSDDTAVYYCARDRYSSSSGYFDYWGQGTLVTVSS
VL: B5 VL with N28D, N30S, T31S, Y36S, V43A, L46A, L96Y, G100Q, V104L
notes: Human IgG4 Fc (prefix H4H)
B9: H4H1774P (antibody, human IgG4, V domains shown)
VH: B6 VH with D55E, N57S, N59Y, A61T, K76Q, N84T, V88A, F106Y
VL: B5 VL with N28G, N30S, T31S, L33V, V43A, L96R, G100Q
notes: Human IgG4 Fc (prefix H4H)
B10: H4H1775P (antibody, human IgG4, V domains shown)
VH: B6 VH with D55E, N57G, N59H, K76Q, N84T, V88A, F106Y
VL: B5 VL with N28D, N30S, T31S, L33V, V43A, L96R, G100Q
notes: Human IgG4 Fc (prefix H4H)
B11: H4H1779P (antibody, human IgG4, V domains shown)
VH: B6 VH with D55E, N57S, N59H, K76Q, N84T, V88A, F106Y
VL: B5 VL with N28D, N30S, T31S, L33V, V43A, L96R, G100Q
notes: Human IgG4 Fc (prefix H4H)
B12: H2M1707N (antibody, mouse IgG2, V domains shown)
VH: EGQLLESGGGLAQPGGSLRLSCAASGITFGRYAMSWVRQAPGKGLEWVSLISGSGGSTYHADSVKGRFTISRDNSKNTLYLQMNSLRAEDTAVYYCAIYNNYNWFDPWGQGTLVTVSS
VL: EIVLTQSPGTLSLSPGERATLSCRASQSVSSNYLAWYQQKPGQAPRLLIYDASSRATDIPDRFSGSGSGTDFTLTISRLEPEDFAVYYCQQYGSSPRTFGQGTKVEIK
B13: H4H1707N (antibody, human IgG4, V domains shown)
VH: B12 VH
VL: B12 VL
notes: Human IgG4 Fc (prefix H4H)
B14: H2M1709N (antibody, mouse IgG2, V domains shown)
VH: QVQLVQSGAEVKKPGASVKVSCKVSGYTLTELSIHWVRQAPGKGLEWMGGFDPEDGETIYAQKFQGRVNMTEDTSTDTAYMELSSLRSDDTTVYFCASLLPYFDYWGQGTLVTVSS
VL: B12 VL with N32S, D51G, D58G, T75S, Y88F, P96M, R97Y, V105L
notes: as for B3
B15: H2M1763N (antibody, mouse IgG2, V domains shown)
VH: QIQLVQSGAEMKRPGTSVKVSCKASGYTFTSYGINWVRQAPGQGLEWMGWISAYNGDTNYAQKLQGRVTMTTDTSTTTAYMEVRSLRSDDTAVYYCARFLTGTKDYYYGMDVWGQGTTVTVSS
VL: DIQMTQSPSSLSASVGDRVTITCQASQDISNFLNWYQQKPGKAPDLLINDASILETGVPSRFSGSGSGTDFTLTINNLQPEDIATYYCQQYDNLPLTFGGGTKVEIK
notes: as for B3
B16: H4H1789Pa (antibody, V domains shown)
VH: EVQLLESGGGLVHPGGSLRLSCAASGFTFGGYAMSWVRQAPGKGLEWVSLISGSGGSTYYADSVKGRFTIFRDNSKNTLYLQMISLRAEDSAVYYCAKYSNYDYFDPWGQGTLVTVSS
VL: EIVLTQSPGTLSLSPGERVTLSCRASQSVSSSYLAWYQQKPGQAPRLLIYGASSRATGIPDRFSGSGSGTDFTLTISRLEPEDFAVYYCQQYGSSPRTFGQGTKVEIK
notes: Human IgG4 Fc (prefix H4H)

Target: T1, Monomeric human CD48-mmH
Assay: SPR (Biacore T100), 25 C, antibody captured by anti-Fc, monomeric CD48-mmH in solution
Method: (§1) Measurements were conducted on a T100-2 BIACORE™ instrument (Biacore Life Sciences division of GE Healthcare, Piscataway, N.J.). Antibodies (either with mouse Fc [designated “H2M” or “H3M”] or human IgG4 Fc [designated “H4H”]) were captured through an anti-Fc chip surface, and CD48 was flowed over the surface either in a monomeric (soluble CD48 expressed with a myc-myc-hexa-histidine C-terminal tag [mmH]) or dimeric (soluble CD48 expressed with a C-terminal Fc fusion [mFc]) format.
(§2) The soluble CD48 was applied to the flow cell in separate injections at different concentrations, and kinetic association (kₐ) and dissociation (kd) rate constants were determined by fits to the kinetic binding data using Biacore software. Binding dissociation equilibrium constants and dissociation half-times were calculated from the kinetic rate constants as: KD=kd/kₐ; t_{1/2}=(ln 2/kd) (units: ka=M⁻¹*s⁻¹; kd=s⁻¹; KD=M; T½=min) (Tables 3-6).

Kd [nM]	T½ [h]	koff [s⁻¹]	kon [M⁻¹ s⁻¹]	Binder
1.38	1.1	0.000176	127000	B1
0.26	0.917	0.000209	805000	B2
17	0.233	0.000849	50000	B3
39.1	0.133	0.00146	37300	B4
2.79	1.08	0.000177	63400	B5
0.194	5.85	3.3e-05	170000	B6
0.476	4.1	4.69e-05	98600	B7
0.259	1.27	0.000153	589000	B8
0.454	4.08	4.72e-05	104000	B9
0.34	3.92	4.92e-05	145000	B10
0.246	4.93	3.9e-05	158000	B11
4.92	0.3	0.000642	131000	B12
3.57	0.317	0.000601	168000	B13
19.8	0.0333	0.0058	292000	B14
11.8	0.0333	0.00648	548000	B15
3.2	0.417	0.000458	143000	B16

Target: T2, Dimeric human CD48-mFc
Assay: SPR (Biacore T100), 25 C, antibody captured by anti-Fc, dimeric CD48-mFc in solution
Method: as §1, §2

Kd [nM]	T½ [h]	koff [s⁻¹]	kon [M⁻¹ s⁻¹]	Binder
0.0344	14.9	1.29e-05	376000	B1
0.00736	12.7	1.52e-05	2.07e+06	B2
1.6	0.833	0.00023	144000	B3
0.841	2.05	9.38e-05	112000	B4
0.51	2.93	6.57e-05	129000	B5
0.0144	15.7	1.23e-05	854000	B6
0.0304	21.5	8.95e-06	294000	B7
0.00325	34.7	5.54e-06	1.71e+06	B8
0.0149	41.4	4.65e-06	311000	B9
0.0179	14.7	1.31e-05	734000	B10
0.0151	16.5	1.17e-05	774000	B11
0.0923	2.92	6.59e-05	714000	B12
0.0736	6.8	2.83e-05	385000	B13
0.311	0.667	0.000288	928000	B14
0.256	0.383	0.000499	1.95e+06	B15
0.0958	5.25	3.66e-05	382000	B16
